Legend:
[1] = target: CpCdc13AB-DBD complex (Candida parapsilosis) (UniProt G8B7U9+G8B5A5); test: EMSA; settings: stated as full-length Kd (~10 nM) at least 100-fold lower; weak shift detected; EMSA: 50 mM Tris-HCl pH 7.5, 2 mM MgCl2, 10 mM NaCl, 1 mM spermidine, 1 mM DTT, 200 ng/ul poly(dI-dC), 5% glycerol, 25 C 60 min; crosslinking: same buffer …
[2] = target: T1, CpCdc13AB heterodimer: His6-SUMO-Cdc13A + GST-Cdc13B-FLAG (Candida parapsilosis, UniProt G8B7U9;G8B5A5 1-456;1-475); test: competition; no effect of truncation; EMSA: 50 mM Tris-HCl pH 7.5, 2 mM MgCl2, 10 mM NaCl, 1 mM spermidine, 1 mM DTT, 200 ng/ul poly(dI-dC), 5% glycerol, 25 C 60 min; crosslinking: same buffer, 22 C 1 h, then UV on ice 20 min; settings: protein: recombinant; tags: His6-SUMO (A); GST and FLAG (B); copies: 1;1
T1 sequence 1: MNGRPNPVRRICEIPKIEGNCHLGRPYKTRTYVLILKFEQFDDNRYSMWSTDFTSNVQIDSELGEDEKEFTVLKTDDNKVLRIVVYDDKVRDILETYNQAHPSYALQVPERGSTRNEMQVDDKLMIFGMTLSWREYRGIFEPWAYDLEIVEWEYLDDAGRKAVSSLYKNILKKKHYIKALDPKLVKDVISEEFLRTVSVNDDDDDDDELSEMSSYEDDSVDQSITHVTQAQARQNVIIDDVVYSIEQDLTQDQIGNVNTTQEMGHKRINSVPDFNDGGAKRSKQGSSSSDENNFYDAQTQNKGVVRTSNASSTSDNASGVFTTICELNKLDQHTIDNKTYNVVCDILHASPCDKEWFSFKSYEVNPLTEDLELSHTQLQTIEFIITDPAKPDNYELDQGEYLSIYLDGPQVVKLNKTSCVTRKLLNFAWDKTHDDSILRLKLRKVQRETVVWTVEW
T1 sequence 2: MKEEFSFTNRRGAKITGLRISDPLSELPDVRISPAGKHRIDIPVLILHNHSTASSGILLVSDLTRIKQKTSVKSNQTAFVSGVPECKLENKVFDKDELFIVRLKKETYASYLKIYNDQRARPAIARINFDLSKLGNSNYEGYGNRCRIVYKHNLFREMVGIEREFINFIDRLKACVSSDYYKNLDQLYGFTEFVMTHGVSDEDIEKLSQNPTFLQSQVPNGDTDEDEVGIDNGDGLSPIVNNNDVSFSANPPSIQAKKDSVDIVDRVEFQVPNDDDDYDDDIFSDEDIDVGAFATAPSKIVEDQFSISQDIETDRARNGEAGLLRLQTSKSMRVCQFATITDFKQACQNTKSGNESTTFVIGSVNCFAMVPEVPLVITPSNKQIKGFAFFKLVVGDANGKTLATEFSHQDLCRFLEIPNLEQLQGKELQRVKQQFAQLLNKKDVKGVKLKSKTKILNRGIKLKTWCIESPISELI

[3] = target: T1, CpCdc13AB heterodimer: His6-SUMO-Cdc13A …; test: competition; vs CpG2 probe; EMSA: 50 mM Tris-HCl pH 7.5, 2 mM MgCl2, 10 mM NaCl, 1 mM spermidine, 1 mM DTT, 200 ng/ul poly(dI-dC), 5% glycerol, 25 C 60 min; crosslinking: same buffer, 22 C 1 h, then UV on ice 20 min; settings: protein: recombinant; tags: His6-SUMO (A); GST and FLAG (B); copies: 1;1
[4] = target: T1, CpCdc13AB heterodimer: His6-SUMO-Cdc13A …; test: competition; inactive as competitor; EMSA: 50 mM Tris-HCl pH 7.5, 2 mM MgCl2, 10 mM NaCl, 1 mM spermidine, 1 mM DTT, 200 ng/ul poly(dI-dC), 5% glycerol, 25 C 60 min; crosslinking: same buffer, 22 C 1 h, then UV on ice 20 min; settings: protein: recombinant; tags: His6-SUMO (A); GST and FLAG (B); copies: 1;1
[5] = target: T1, CpCdc13AB heterodimer: His6-SUMO-Cdc13A …; test: EMSA; apparent Kd; EMSA: 50 mM Tris-HCl pH 7.5, 2 mM MgCl2, 10 mM NaCl, 1 mM spermidine, 1 mM DTT, 200 ng/ul poly(dI-dC), 5% glycerol, 25 C 60 min; crosslinking: same buffer, 22 C 1 h, then UV on ice 20 min; settings: protein: recombinant; tags: His6-SUMO (A); GST and FLAG (B); copies: 1;1
[6] = target: T1, CpCdc13AB heterodimer: His6-SUMO-Cdc13A …; test: competition; affinity unaffected; EMSA: 50 mM Tris-HCl pH 7.5, 2 mM MgCl2, 10 mM NaCl, 1 mM spermidine, 1 mM DTT, 200 ng/ul poly(dI-dC), 5% glycerol, 25 C 60 min; crosslinking: same buffer, 22 C 1 h, then UV on ice 20 min; settings: protein: recombinant; tags: His6-SUMO (A); GST and FLAG (B); copies: 1;1
[7] = target: T1, CpCdc13AB heterodimer: His6-SUMO-Cdc13A …; test: UV photo-crosslinking; mostly Cdc13B adducts; EMSA: 50 mM Tris-HCl pH 7.5, 2 mM MgCl2, 10 mM NaCl, 1 mM spermidine, 1 mM DTT, 200 ng/ul poly(dI-dC), 5% glycerol, 25 C 60 min; crosslinking: same buffer, 22 C 1 h, then UV on ice 20 min; settings: protein: recombinant; tags: His6-SUMO (A); GST and FLAG (B); copies: 1;1; label: 32P
[8] = target: T1, CpCdc13AB heterodimer: His6-SUMO-Cdc13A …; test: EMSA; EMSA: 50 mM Tris-HCl pH 7.5, 2 mM MgCl2, 10 mM NaCl, 1 mM spermidine, 1 mM DTT, 200 ng/ul poly(dI-dC), 5% glycerol, 25 C 60 min; crosslinking: same buffer, 22 C 1 h, then UV on ice 20 min; settings: protein: recombinant; tags: His6-SUMO (A); GST and FLAG (B); copies: 1;1
[9] = target: T1, CpCdc13AB heterodimer: His6-SUMO-Cdc13A …; test: UV photo-crosslinking; lower product level than IO-1 and IO-3; EMSA: 50 mM Tris-HCl pH 7.5, 2 mM MgCl2, 10 mM NaCl, 1 mM spermidine, 1 mM DTT, 200 ng/ul poly(dI-dC), 5% glycerol, 25 C 60 min; crosslinking: same buffer, 22 C 1 h, then UV on ice 20 min; settings: protein: recombinant; tags: His6-SUMO (A); GST and FLAG (B); copies: 1;1; label: 32P
[10] = target: T1, CpCdc13AB heterodimer: His6-SUMO-Cdc13A …; test: competition; no effect; EMSA: 50 mM Tris-HCl pH 7.5, 2 mM MgCl2, 10 mM NaCl, 1 mM spermidine, 1 mM DTT, 200 ng/ul poly(dI-dC), 5% glycerol, 25 C 60 min; crosslinking: same buffer, 22 C 1 h, then UV on ice 20 min; settings: protein: recombinant; tags: His6-SUMO (A); GST and FLAG (B); copies: 1;1
[11] = target: T1, CpCdc13AB heterodimer: His6-SUMO-Cdc13A …; test: competition; vs CpG2 probe; EMSA: 50 mM Tris-HCl pH 7.5, 2 mM MgCl2, 10 mM NaCl, 1 mM spermidine, 1 mM DTT, 200 ng/ul poly(dI-dC), 5% glycerol, 25 C 60 min; crosslinking: same buffer, 22 C 1 h, then UV on ice 20 min; settings: protein: recombinant; tags: His6-SUMO (A); GST and FLAG (B); copies: 1;1; remark: listed apart in the source
[12] = target: T1, CpCdc13AB heterodimer: His6-SUMO-Cdc13A …; test: UV photo-crosslinking; Cdc13A adducts; EMSA: 50 mM Tris-HCl pH 7.5, 2 mM MgCl2, 10 mM NaCl, 1 mM spermidine, 1 mM DTT, 200 ng/ul poly(dI-dC), 5% glycerol, 25 C 60 min; crosslinking: same buffer, 22 C 1 h, then UV on ice 20 min; settings: protein: recombinant; tags: His6-SUMO (A); GST and FLAG (B); copies: 1;1; label: 32P

Molecule ATTATACTGAGGTCCGGATGTTG [CpG1] has a Kd [1] of over 1000 nM.

TACTGAGGTCCGGATGTTG (ssDNA) [CpG1-Δ1]: binds [2].

GTGGGTGTGTGGGTGTGTGGGTGTGTGGGTGTGT (ssDNA) [ScTG34]: no binding [3].

GATCATTGGTGTACGGATGTCACGATCATTGGTGTACGGATGTCAC (ssDNA) [CtG2]: no binding [3].

ATTATACTGAGGTCCGGAT (ssDNA) [CpG1-Δ4]: no binding [4].

CCGGATGTTGATTATACTGAGGT (ssDNA) [CpG1b]: no binding [3].

Molecule ATTATACTGAGGTCCGGATGTTGATTATACTGAGGTCCGGATGTTG (ssDNA) [CpG2] has a Kd [5] of about 7.07 nM.

ATTATACTGAGGTCCGGATGTCA (ssDNA) [CpG1-Ct4]: binds [6].

ATTATACTGAGGTCCGGATGTTG (ssDNA, 5-iodo-dU at T8 of CpG1) [IO-1]: binds [7].

CGATTACTGAGGTCCGGATGTTG (ssDNA) [CpG1-Ct1]: binds [6].

Molecule ATTATACTGAGGTCCGGATGTTG (ssDNA) [CpG1] has a Kd [8] of about 10 nM.

ATTATACTGAGGTCCGGATGTTG (ssDNA, 5-iodo-dU at T13 of CpG1) [IO-2]: binds [9].

ATTACATTGAGGTCCGGATGTTG (ssDNA) [CpG1-Ct2]: binds [10].

In the case of CTGATGTTCTTTAGGGAGGTACTGATGTTCTTTAGGGAGGTA (ssDNA) [ClG2], the binding signal [11] is reported as ~20 fold higher concentration for 50% inhibition.

ATTATACTGAGGTCCGGATGTTG (ssDNA, 5-iodo-dU at T19 of CpG1) [IO-3]: binds [12].

From publication PMC4344524, “Combinatorial recognition of a complex telomere repeat sequence by the Candida parapsilosis Cdc13AB heterodimer”
